Experimental data taken from US20110229465A1, “COMPOSITION FOR TREATING DISEASE” (priority 2008, published 2011).

What was measured:
Treg cells = conditions: in vitro 50 nM MTX (highest concentration analyzed); reduced from 94%, p<0.05; cited from earlier work
[1] = plasma levels of BT061 after intravenous administration in healthy volunteers; format: in vivo, human; conditions: range in three volunteers
Text: This is considered to reflect a faster target mediated clearance.

[2] = tested on: rheumatoid arthritis patients; test: monotherapy trial of BT061 in rheumatoid arthritis patients, ACR improvements; format: in vivo, human; conditions: week 7, blinded data from 8 individuals (2 placebo, six BT061)
Text: This system defines a value of ACR 20 as an at least 20% improvement in tender and swollen joint counts and at least 20% improvement in 3 of the 5 remaining ACR core set measures: patient and physician global assessments, pain, disability, and an acute phase reactant, such as C-reactive protein (CRP) or Erythrocyte Sedimentation Rate (ESR). Similarly, ACR 50 and ACR 70 scores define an at least 50% and an at least 70% improvement, respectively.
As indicated above, in one aspect of the invention the agent and/or methotrexate are administered subcutaneously. In general, as is known in the art, subcutaneous doses need to be larger than intravenous doses in order to achieve the equivalent therapeutic effect.

[3] = tested on: CD4+CD25+ regulatory T cells; test: in vitro proliferation assay with freshly isolated CD4+CD25+ regulatory T cells; format: cell-based, human
Protocol: 50 ml EDTA blood specimens were obtained from healthy control donors. Peripheral blood mononuclear cells (PBMCs), regulatory T cells (Tregs) and T helper cells as T responder cells (Tresps) were isolated from peripheral blood samples as previously described (Haas et al., 2007).
Freshly isolated Tregs were pre-incubated for 48 hours with 1 μg/ml plate bound antibody (BT061), 1 μg/ml soluble BT061 or Medium.
Freshly isolated Tregs (2.5×10^4, donor A) obtained from 2 donors (Exp. 1 and Exp. 2) were pre-incubated for 48 hours with either 1 μg/ml soluble or plate bound BT061. To achieve allogeneic stimulation the 2.5×10^4 pre-incubated Tregs were then transferred to 1×10^5 T cells as responder cells (Tresps) from a second donor (donor B) in the presence of 2×10^5 T cell depleted and irradiated (30 Gray) PBMCs (donor A). After 4 days of stimulation 1 μCi [3H] thymidine per well was added and proliferation was measured after additional 16 hours.
The percentage of Treg mediated inhibition of Tresp proliferation is shown in FIG. 1 as the percent suppression of proliferation of Tresps incubated with PBMC in the absence of Tregs. Results are shown for the Tregs obtained from the two donors (Exp. 1 and Exp. 2). […]

[4] = 2 mg i.v. once weekly for six weeks
[5] = 50 mg s.c. once weekly for six weeks

CN(Cc1cnc2nc(N)nc(N)c2n1)c1ccc(C(=O)N[C@@H](CCC(=O)O)C(=O)O)cc1 [MTX, 4-amino-N10-methylpteroyl glutamic acid]
suppressive activity of Treg cells (Treg cells): 88%

B1: BT061: humanized anti-CD4 antibody derived from mouse B-F5, V domains SEQ ID NO: 1 and 2, activates CD4+CD25+ regulatory T cells (antibody, V domains shown)
VH: EEQLVESGGGLVKPGGSLRLSCAASGFSFSDCRMYWLRQAPGKGLEWIGVISVKSENYGANYAESVRGRFTISRDDSKNTVYLQMNSLKTEDTAVYYCSASYYRYDVGAWFAYWGQGTLVTVSS
VL: DIVMTQSPDSLAVSLGERATINCRASKSVSTSGYSYIYWYQQKPGQPPKLLIYLASILESGVPDRFSGSGSGTDFTLTISSLQAEDVAVYYCQHSRELPWTFGQGTKVEIK
modifications: V domain of H chain of humanized antibody hB-F5H37L; V domain of K chain of humanized antibody hB-F5L4M
plasma level, conc. 3 h post end of infusion ([1]; dosage 2.5 mg intravenous): 0 ng/mL | plasma level, effective cmax (post end of infusion) ([1]; dosage 2.5 mg intravenous): 60 to 140 ng/mL | plasma level, conc. 3 h post end of infusion ([1]; dosage 5 mg intravenous): 90 to 160 ng/mL | plasma level, effective cmax (post end of infusion) ([1]; dosage 5 mg intravenous): 320 to 440 ng/mL | plasma level, conc. 3 h post end of infusion ([1]; dosage 10 mg intravenous): 460 to 1400 ng/mL | plasma level, effective cmax (post end of infusion) ([1]; dosage 10 mg intravenous): 800 to 2000 ng/mL | plasma level, conc. 3 h post end of infusion ([1]; dosage 20 mg intravenous): 1700 to 3300 ng/mL | plasma level, effective cmax (post end of infusion) ([1]; dosage 20 mg intravenous): 2300 to 4100 ng/mL | plasma level, conc. 3 h post end of infusion ([1]; dosage 40 mg intravenous): 4400 to 6100 ng/mL | plasma level, effective cmax (post end of infusion) ([1]; dosage 40 mg intravenous): 5900 to 6500 ng/mL | plasma level, conc. 3 h post end of infusion ([1]; dosage 60 mg intravenous): 7700 to 11080 ng/mL | plasma level, effective cmax (post end of infusion) ([1]; dosage 60 mg intravenous): 8900 to 15100 ng/mL | percentage of patients showing ACR20 [2, 4]: 50% | percentage of patients showing ACR50 [2, 4]: 25% | percentage of patients showing ACR70 [2, 4]: 12.5% | percentage of patients showing ACR20 [2, 5]: 50% | percentage of patients showing ACR50 [2, 5]: 25% | percentage of patients showing ACR70 [2, 5]: 12.5% | Treg mediated suppression of Tresp proliferation ([3]; Tregs pre-incubated 48 hours with 1 μg/ml plate bound BT061, versus medium alone): able to reduce average proliferative responses of allogeneic stimulated Tresps | Treg mediated suppression of Tresp proliferation ([3]; Tregs pre-incubated 48 hours with 1 μg/ml soluble BT061, versus medium alone): able to reduce average proliferative responses of allogeneic stimulated Tresps
